Measurements: paper PMC7195389, “Inter-domain dynamics in the chaperone SurA and multi-site binding to its outer membrane protein clients” (Nature Communications, 2020)
Each block holds one binder with its values, some of them ahead of it.

How the values were obtained:
Conditions in all cases: both partners purified
[1] = target: T1, SurA (E. coli periplasmic chaperone, wild type, mature sequence) (E. coli, UniProt P0ABZ6 21-428); assay: HDX-MS; differential HDX of 8 µM SurA without and with 110 µM WEYIPNV, 10 mM potassium phosphate pH 8.0, 4 °C, 0.5-120 min
T1 construct: numbering is the gene numbering with the signal peptide; also called SurA WT; apo-SurA; source: E. coli BL21(DE3), purified (HisTrap, denatured on-column with 6 M Gdn-HCl, TEV cleavage, second HisTrap); not shown: His6, N-terminal, cleaved
T1 sequence (looked up): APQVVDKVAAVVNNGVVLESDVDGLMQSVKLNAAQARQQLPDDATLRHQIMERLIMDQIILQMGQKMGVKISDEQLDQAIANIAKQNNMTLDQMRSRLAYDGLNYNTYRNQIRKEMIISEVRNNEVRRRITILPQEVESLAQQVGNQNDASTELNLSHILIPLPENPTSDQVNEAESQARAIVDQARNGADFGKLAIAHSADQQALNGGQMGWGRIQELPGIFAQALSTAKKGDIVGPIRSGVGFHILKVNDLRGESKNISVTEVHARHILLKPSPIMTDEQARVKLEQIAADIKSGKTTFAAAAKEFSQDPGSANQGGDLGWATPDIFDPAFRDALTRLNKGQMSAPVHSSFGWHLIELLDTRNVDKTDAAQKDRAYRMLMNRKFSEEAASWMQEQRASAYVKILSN

[2] = target: T2, SurA Q85C-N193C labelled with Alexa Fluor 488 and Alexa Fluor 594 (E. coli, UniProt P0ABZ6 21-428, Q85C | N193C, Alexa Fluor 488 C5 maleimide and Alexa Fluor 594 C5 maleimide, stochastically, on Cys 85 and Cys 193); assay: FRET or BRET; intramolecular smFRET (ALEX) of ~50 pM doubly labelled SurA variant with 1.5 µM WEYIPNV, 50 mM Tris-HCl pH 8.0, 25 °C; change of the inter-domain E_FRET distribution against apo-SurA
T2 construct: gene numbering with the signal peptide; also called core-P1 SurA variant; SurA core-P1; source: E. coli BL21(DE3), purified as wild type with 10 mM DTT; labelled with Alexa Fluor maleimides, SEC; not shown: His6, N-terminal, cleaved
T2 sequence (looked up): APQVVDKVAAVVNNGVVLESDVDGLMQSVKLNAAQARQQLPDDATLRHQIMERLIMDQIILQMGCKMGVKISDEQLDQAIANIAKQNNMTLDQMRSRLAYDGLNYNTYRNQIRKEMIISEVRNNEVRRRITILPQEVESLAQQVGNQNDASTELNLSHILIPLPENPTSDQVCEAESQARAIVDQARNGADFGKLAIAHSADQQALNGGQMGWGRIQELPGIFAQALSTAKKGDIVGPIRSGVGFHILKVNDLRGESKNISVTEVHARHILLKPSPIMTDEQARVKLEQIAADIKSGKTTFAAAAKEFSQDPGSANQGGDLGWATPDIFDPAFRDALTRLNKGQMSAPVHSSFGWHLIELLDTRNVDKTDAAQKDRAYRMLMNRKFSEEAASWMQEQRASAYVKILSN

[3] = target: T3, SurA Q85C-E301C labelled with Alexa Fluor 488 and Alexa Fluor 594 (E. coli, UniProt P0ABZ6 21-428, Q85C | E301C, Alexa Fluor 488 C5 maleimide and Alexa Fluor 594 C5 maleimide, stochastically, on Cys 85 and Cys 301); assay: as above
T3 construct: gene numbering with the signal peptide; also called core-P2 SurA variant; SurA core-P2; source: E. coli BL21(DE3), purified as wild type with 10 mM DTT; labelled with Alexa Fluor maleimides, SEC; not shown: His6, N-terminal, cleaved
T3 sequence (looked up): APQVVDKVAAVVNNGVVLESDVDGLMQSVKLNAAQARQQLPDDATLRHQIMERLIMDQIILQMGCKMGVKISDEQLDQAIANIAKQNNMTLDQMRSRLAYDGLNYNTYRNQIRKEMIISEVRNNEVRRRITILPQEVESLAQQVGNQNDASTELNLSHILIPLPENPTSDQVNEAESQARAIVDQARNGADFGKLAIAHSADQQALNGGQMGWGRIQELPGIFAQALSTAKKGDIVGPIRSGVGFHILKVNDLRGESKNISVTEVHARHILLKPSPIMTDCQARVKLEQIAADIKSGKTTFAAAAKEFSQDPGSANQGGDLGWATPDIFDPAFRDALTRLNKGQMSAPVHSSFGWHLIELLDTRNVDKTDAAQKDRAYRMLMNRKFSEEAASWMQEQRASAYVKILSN

[4] = target: T1, SurA (E. coli periplasmic chaperone, …); assay: MST; 50 nM Alexa Fluor 488-labelled Cys-OmpX, SurA titrated 100 µM-3 nM, 0.24 M urea, 50 mM Tris-HCl pH 8.0; fitted to the Hill equation; apparent
[5] = target: T1, SurA (E. coli periplasmic chaperone, …); assay: cross-linking; tag-transfer photo-cross-linking: 10 µM SurA, 5 µM MTS-diazirine-labelled OmpX Cys variant, 0.24 M urea, 10 mM potassium phosphate pH 8.0, UV LED 30 s; SDS-PAGE, LC-MS/MS
[6] = target: T1, SurA (E. coli periplasmic chaperone, …); assay: HDX-MS; differential HDX of 8 µM SurA without and with 8 µM OmpX or OmpF, 10 mM potassium phosphate pH 8.0, 0.24 M urea, 4 °C, 0.5-120 min
[7] = target: T2, SurA Q85C-N193C labelled with Alexa …; assay: FRET or BRET; intramolecular smFRET (ALEX) of ~50 pM doubly labelled SurA variant with 1.5 µM OmpX or OmpF, 50 mM Tris-HCl pH 8.0, 0.24 M urea, 25 °C; change of the inter-domain E_FRET distribution against apo-SurA
[8] = target: T1, SurA (E. coli periplasmic chaperone, …); assay: cross-linking; DSBU, 5 µM SurA, 5 µM OmpX, 0.24 M urea, 10 mM potassium phosphate pH 8.0, 45 min, room temperature; SDS-PAGE band, in-gel digestion, LC-MS/MS

Binder: WEYIPNV [WEYIPNV peptide]
- binding result [1]: binds
- binding result [2]: binds
- binding result [3]: binds

B1: Cys-OmpX labelled with Alexa Fluor 488 (natural protein, E. coli)
chain: MGSCATSTVTGGYAQSDAQGQMNKMGGFNLKYRYEEDNSPLGVIGSFTYTEKSRTASSGDYNKNQYYGITAGPAYRINDWASIYGVVGVGYGKFQTTEYPTYKHDTSDYGFSYGAGLQFNPMENVALDFSYEQSRIRSVDVGTWIAGVGYRF
modifications: Alexa Fluor 488 C5 maleimide on the added Cys
notes: N-terminal Met followed by the added residues Gly-Ser-Cys (named in words); also called labelled Cys-OmpX; source: E. coli BL21[DE3], inclusion bodies, purified; labelled with Alexa Fluor 488 C5 maleimide
- Kd [4]: ~800 nM

B2: OmpX V167C labelled with MTS-diazirine (natural protein, E. coli)
chain: MATSTVTGGYAQSDAQGQMNKMGGFNLKYRYEEDNSPLGVIGSFTYTEKSRTASSGDYNKNQYYGITAGPAYRINDWASIYGVVGVGYGKFQTTEYPTYKHDTSDYGFSYGAGLQFNPMENVALDFSYEQSRIRSVDVGTWIAGCGYRF
modifications: MTS-diazirine on Cys 167
notes: N-terminal Met residue of the OmpX construct (named in words); source: purified, conjugated with MTS-diazirine in 6 M guanidine-HCl
- binding result [5]: binds

B3: OmpF (E. coli outer membrane protein F, mature sequence, unfolded) (natural protein, UniProt P02931 23-362, looked up)
chain: AEIYNKDGNKVDLYGKAVGLHYFSKGNGENSYGGNGDMTYARLGFKGETQINSDLTGYGQWEYNFQGNNSEGADAQTGNKTRLAFAGLKYADVGSFDYGRNYGVVYDALGYTDMLPEFGGDTAYSDDFFVGRVGGVATYRNSNFFGLVDGLNFAVQYLGKNERDTARRSNGDGVGGSISYEYEGFGIVGAYGAADRTNLQEAQPLGNGKKAEQWATGLKYDANNIYLAANYGETRNATPITNKFTNTSGFANKTQDVLLVAQYQFDFGLRPSIAYTKSKAKDVEGIGDVDLVNYFEVGATYYFNKNMSTYVDYIINQIDSDNKLGVGSDDTVAVGIVYQF
notes: source: E. coli BL21[DE3], inclusion bodies, purified (gel filtration in 6 M Gdn-HCl); urea-denatured and diluted into the assay
- binding result [6]: binds
- binding result [7]: binds

B4: OmpX M41C labelled with MTS-diazirine (natural protein, E. coli)
chain: MATSTVTGGYAQSDAQGQCNKMGGFNLKYRYEEDNSPLGVIGSFTYTEKSRTASSGDYNKNQYYGITAGPAYRINDWASIYGVVGVGYGKFQTTEYPTYKHDTSDYGFSYGAGLQFNPMENVALDFSYEQSRIRSVDVGTWIAGVGYRF
modifications: MTS-diazirine on Cys 41
notes: as for B2
- binding result [5]: binds

More lines, now with the values ahead:

- binding result [8]: binds
- binding result [7]: binds
B5: OmpX (E. coli outer membrane protein X, mature sequence, unfolded) (natural protein)
chain: MATSTVTGGYAQSDAQGQMNKMGGFNLKYRYEEDNSPLGVIGSFTYTEKSRTASSGDYNKNQYYGITAGPAYRINDWASIYGVVGVGYGKFQTTEYPTYKHDTSDYGFSYGAGLQFNPMENVALDFSYEQSRIRSVDVGTWIAGVGYRF
notes: N-terminal Met residue of the construct (named in words); Unfolded client in 0.24 M urea; source: E. coli BL21[DE3], inclusion bodies, purified (gel filtration in 6 M Gdn-HCl); urea-denatured and diluted into the assay

- binding result [5]: binds
B6: OmpX I102C labelled with MTS-diazirine (natural protein, E. coli)
chain: MATSTVTGGYAQSDAQGQMNKMGGFNLKYRYEEDNSPLGVIGSFTYTEKSRTASSGDYNKNQYYGITAGPAYRINDWASCYGVVGVGYGKFQTTEYPTYKHDTSDYGFSYGAGLQFNPMENVALDFSYEQSRIRSVDVGTWIAGVGYRF
modifications: MTS-diazirine on Cys 102
notes: as for B2

- binding result [5]: binds
B7: OmpX K122C labelled with MTS-diazirine (natural protein, E. coli)
chain: MATSTVTGGYAQSDAQGQMNKMGGFNLKYRYEEDNSPLGVIGSFTYTEKSRTASSGDYNKNQYYGITAGPAYRINDWASIYGVVGVGYGKFQTTEYPTYCHDTSDYGFSYGAGLQFNPMENVALDFSYEQSRIRSVDVGTWIAGVGYRF
modifications: MTS-diazirine on Cys 122
notes: as for B2
